We go through six molecules from US20220155309A1 (NATIONAL UNIVERSITY CORPORATION TOKYO MEDICAL AND DENTAL …, published 2022).

For test [1], the target named is T1, vimentin (UniProt P08670 2-466, limits assumed).
T1 construct: whole, on cells; Endogenous intracellular intermediate filament; also called vimentin fibers; intracellular vimentin
The test can be described thus: fluorescence polarization microscopy of cells expressing the fusion protein. The text has this: (§1) An expression vector in which DNA encoding the fusion protein designed was placed under an appropriate promoter was introduced by a lipofection method (Avalanche-Everyday Transfection Reagent), thereby allowing HeLa cells to express the above fusion protein. The cells expressing the fusion protein were observed by fluorescence polarization microscopy.
(§2) The orientation of polarization was different from that in the previous cp-sfGFP. The cp-sfGFP of Example 5 and the cp176-172mVenus used in this example were basically the same type of fluorescent proteins but different in the position of cp.
A general note: Fluorescence polarisation rises when a labelled molecule tumbles more slowly, as on binding a larger partner.

Test [2] concerns the target T1, vimentin. As to the kind of experiment: fluorescence polarization microscopy of HeLa cells expressing the fusion protein.
Description: as §1, §2

The target of test [3] is T2, Affimer that binds to actin with ALFA-tag introduced (SEQ ID No: 41).
T2 construct: Expressed in HeLaM cells; also called fusion protein of Affimer and an ALFA-tag; Affimer with ALFA-tag introduced
T2 chain: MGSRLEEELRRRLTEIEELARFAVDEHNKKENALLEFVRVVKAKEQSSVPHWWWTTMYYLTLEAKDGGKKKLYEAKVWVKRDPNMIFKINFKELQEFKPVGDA
The test can be described thus: fluorescence polarization microscopy of HeLaM cells expressing the ALFA-tagged Affimer, detected with the anti-ALFA-tag Nanobody-cp176-172mVenus fusion. The text has this: Specifically, an ALFA-tag (SEQ ID No: 40) was introduced into an Affimer (SEQ ID No: 2) that binds to F-actin as a model system for verifying the above detection system, to obtain a fusion protein having the amino acid sequence set forth in SEQ ID No: 41. This fusion protein was expressed in HeLaM cells. A fusion protein of an anti-ALFA-tag Nanobody (SEQ ID No: 42) and cp176-172mVenus (SEQ ID No: 43) were brought into contact, and fluorescence polarization was observed. The fusion protein of anti-ALFA-tagged Nanobody and cp176-172mVenus was a fusion protein suitable for observation of fluorescence polarization, in which the Nanobody and the cp176-172mVenus were tightly linked (c.f. Example 5).

Where a chain is given by its changes, count along the chain named.

T1 sequence (P08670 2-466 limits assumed): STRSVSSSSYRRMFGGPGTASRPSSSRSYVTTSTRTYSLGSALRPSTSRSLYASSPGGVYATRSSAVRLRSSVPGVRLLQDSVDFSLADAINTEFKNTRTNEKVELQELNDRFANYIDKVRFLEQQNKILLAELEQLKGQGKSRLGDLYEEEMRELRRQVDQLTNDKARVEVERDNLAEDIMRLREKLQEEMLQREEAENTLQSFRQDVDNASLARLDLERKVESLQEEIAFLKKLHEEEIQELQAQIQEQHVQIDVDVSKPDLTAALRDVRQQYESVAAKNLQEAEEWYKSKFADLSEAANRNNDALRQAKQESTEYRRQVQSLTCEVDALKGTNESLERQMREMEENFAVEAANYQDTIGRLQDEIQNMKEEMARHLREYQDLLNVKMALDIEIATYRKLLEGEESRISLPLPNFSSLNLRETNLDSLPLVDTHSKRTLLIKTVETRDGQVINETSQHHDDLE

B1: fusion protein of Nanobody that binds to vimentin and cpmTurquoise2 (SEQ ID No: 25) (VHH)
VHH: QVQLVESGGGLVQSGGSLTLTCAASGFTFSAASMRWVRQVPGKGLEWVATIDGTGANSYYSESAKGRFTISRDNARNTLRLQMNNLKPDDTAVYYCANFGRNYWGKGTQVTVVV
With B1, the binding result with vimentin [1] is recorded as “binds”.

B2: fusion protein of vimentin-binding Nanobody and mApple (SEQ ID No: 19) (VHH)
VHH: B1 VHH with V113M, V114A
notes: Expressed inside HeLa cells; also called fusion protein of mApple and Nanobody
Take B2: the binding result with vimentin [2] is “binds”.

B3: fusion protein of vimentin-binding Nanobody and cp-sfGFP (SEQ ID No: 17) (VHH)
VHH: B1 VHH
notes: Expressed inside HeLa cells; beta-sheet to beta-sheet linkage; also called fusion protein of cp-sfGFP and Nanobody
Consider B3, for which the binding result with vimentin [2] is given as “binds”.

B4: fusion protein of Nanobody that binds to vimentin and cp176-172mVenus (SEQ ID No: 31) (VHH)
VHH: B1 VHH
notes: Expressed inside HeLa cells
As to B4, the binding result in the test with vimentin [2] is reported as “binds”.

B5: fusion protein of Nanobody that binds to vimentin and cpmVenus (SEQ ID No: 26) (VHH)
VHH: B1 VHH
Consider B5, for which the binding result with vimentin [1] was “binds”.

B6: fusion protein of anti-ALFA-tag Nanobody and cp176-172mVenus (SEQ ID No: 43) (VHH)
VHH: EVQLQESGGGLVQPGGSLRLSCTASGVTISALNAMAMGWYRQAPGERRVMVAAVSERGNAMYRESVQGRFTVTRDFTNKMVSLQMDNLKPEDTAVYYCHVLEDRVDSFHDYWGQGTQVTVVQ
Regarding B6, the binding result in test [3] is given as “binds”.
